Measurements reported in publication doi:10.1101/2025.01.28.635353, “DyAb: sequence-based antibody design and property prediction in a low-data regime” (bioRxiv, 2025).
Positions count from the first letter of the chain named. Each block holds one binder with its values, some of them ahead of it.

Biological target: T1, EGFR (Homo sapiens, isoform 1 (assumed), UniProt P00533)
T1 construct: EGFR, the target antigen injected in SPR
Experiment: SPR; antibody captured on a Protein A chip, target antigen injected 5 min, dissociation 10 min at 30 µL/min; multi-cycle mode; 37 degC; HBS-EP+ (10 mM Hepes pH 7.4, 150 mM NaCl, 0.3 mM EDTA, 0.05% Surfactant P20); 1:1 Langmuir fit; absolute affinities of the leads are medians across all experimental rounds
Settings: both partners purified

Kd: 3 nM
B1: anti-EGFR lead (antibody, V domains shown)
VH: EVKLQQSGDETMRPGASVRMSCKAYGYTFTDYSVHWIRQRPGQGLEWIGIIIPLIDTTRYNQKFKGKAVLTADTSSDTAYMELSRLTFEDSAVYYCARSYGSSGDDWFAYWGQGTLVTVSS
VL: DTVLTQSPALSVSPGERVDISCRASESVSTLLHWYQQKPGQQPTLLISLASSLESGVPARFSGSGSGTDFTLTIDPVEADDTAIYYCQESWNEPYAFGAGTKLELK
notes: the Fab of this antibody was crystallised and deposited as PDB 9MU1 (heavy chain); the Fab of this antibody was crystallised and deposited as PDB 9MU1 (light chain); The methods tell the production (Expi293, purified) only of the DyAb designs; The Fab for the crystal was made in CHO cells; also called aEGFR lead; starting point lead candidate

binding result: binds
B2: aEGFR-R1-1 (antibody, V domains shown)
VH: B1 VH with V34M, V69T, G101D, S102P
VL: B1 VL
notes: the Fab was crystallised and deposited as PDB 9MSW (heavy chain); as the heavy chain of m1 with four mutations across CDR-H1, CDR-H3 and the framework (Kabat numbering); the Fab was crystallised and deposited as PDB 9MSW (light chain); The Fab for the crystal was made in CHO cells; also called R1-1 design; DyAb design aEGFR-R1-1; source: Expi293, transiently expressed, purified from supernatant
